Reference: the supplement of paper PMC10126150
± gives the standard deviation of the averaged measurements.

System: ATP
Test: switch fluorescence ratio, 500 uM ATP over buffer (Cy3 cluster intensity, sum of 5 cycles each) (fold (ratio)); higher = stronger signal-on switching upon ATP binding; sequences stand for … in TCGTCGGCAGCGTCAGATGTGTATAAGAGACAGTTTTTTTTTTTTTTTTTTTTTTTTT…TC
Conditions: aptamer strand: ATP DNA aptamer (quencher-CACCTGGGGGAGTATTGCGGAGGAAGG + anchor), 100 nM annealed; ATP concentration: 500 uM
Method in brief: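 Values give the fluorescence ratio for each switch-domain sequence, averaged from per-cluster ratios of summed target-cycle to summed buffer-cycle Cy3 intensity. The Cy3-labelled switching-strand clusters sat on a modified Illumina MiSeq flow-cell, were annealed to 100 nM quencher-labelled ATP aptamer, and were imaged in selection buffer, then after 15 min with 500 uM ATP at 22 °C. Five cycles ran with NaOH stripping and re-annealing between them, and clusters outside 100-1000 RFU were excluded.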
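Note: ATP exposure 15 min at 22 °C before imaging.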

Sequence	switch fluorescence ratio
AGGTTAAGTT	0.989 ± 0.021
CCAGGTCCGC	1.455 ± 0.0073
TGCTTATTTT	1.01 ± 0.065
GGGGTGCGGT	0.998 ± 0.017
TGAGACAAGC	1.05 ± 0.012
GTTATTAATT	0.983 ± 0.0036
ATACTATTTT	0.996 ± 0.023
GCCGGCGCAC	1.026 ± 0.0057
TTTGCGGTGG	1.01 ± 0.075
TCTTGCTCGG	1.01 ± 0.053
TTATGTAGGT	0.9798 ± 0.007
ACTGTTCCGA	1.05 ± 0.054
TGGAGGGAGG	1.01 ± 0.023
TTTGGAAAGC	1.04 ± 0.019
AGATTTGAGC	0.972 ± 0.035
AGTCGGAAAG	1.02 ± 0.015
ACATGGATAA	1.012 ± 0.0044
CATTCTATGC	1.03 ± 0.011
AGGGGGTATT	1.01 ± 0.024
GCATGAGGGT	1.03 ± 0.072
TTGTAGCCGT	0.983 ± 0.029
GTTTTTG	0.984 ± 0.031
AATTTACTGG	1.13 ± 0.084

Sequence	switch fluorescence ratio
TCTTAAAGGG	0.9808 ± 0.0011
ATCTATCTTG	0.9777 ± 0.0012
TTTTGTTTA	0.984 ± 0.022
AACGGGAAGA	1.02 ± 0.028
GAGTTACTTT	1.02 ± 0.023
TCGTTTCCGT	0.984 ± 0.035
TTAGAAAGGG	0.977 ± 0.029
TCAAAGACGG	1.02 ± 0.016
CATCGTGTTA	1.01 ± 0.022
ATTAATATCA	0.9629 ± 0.0017
TTAGGAGAAT	0.999 ± 0.015
TTACAGGCCT	1.05 ± 0.056
TGATTTAACC	1.05 ± 0.021
GAATTTTTGG	0.997 ± 0.017
TCAGCATGTC	1.27 ± 0.036
TGGGAAGGAT	1.006 ± 0.0016
TGGTGAGGTG	1.02 ± 0.02
TATTTTGGAA	0.986 ± 0.044
TTAATGGGA	0.995 ± 0.011
ACATGAGCGT	0.996 ± 0.016
AGGAGTGCTG	0.995 ± 0.052
TAGCGTTTCC	1.097 ± 0.0047
AGAATATTAA	0.978 ± 0.013

Sequence	switch fluorescence ratio
GTCAGCATTT	1.03 ± 0.038
TGAAGTTAGG	1.01 ± 0.021
GGGATAGGTT	1.07 ± 0.12
GGGTCAGGGC	1.06 ± 0.062
CCATGCACTG	1.017 ± 0.0028
GGATGGACAG	1 ± 0.01
GGGAGAGGTG	0.989 ± 0.027
CCTTACCTTG	1.04 ± 0.041
TTTTAAAACT	1.05 ± 0.039
AGCGCTGGCG	1 ± 0.049
CGAGGGCAGG	1.08 ± 0.06
AAGGGGTCTC	0.998 ± 0.021
TAGACGGAAG	1.052 ± 0.00072
TATTTGGAGT	1.012 ± 0.0022
TCTGGGAAAA	0.918 ± 0.037
CGGCTCAACT	1.01 ± 0.022
CATAGGATCG	0.949 ± 0.038
TCAGGTATGT	1.01 ± 0.038
TTGCCGGCTA	1.038 ± 0.0057
AGACATATTT	1 ± 0.027
ATGGGGCTCT	0.9967 ± 0.0067
TTTAAAACGC	1.01 ± 0.099
ATTACTAGTG	1.03 ± 0.014

Sequence	switch fluorescence ratio
GATTTGGGTT	1.02 ± 0.041
TTTTTTCATA	0.9974 ± 0.0093
CTTTGTAGT	1.013 ± 0.01
AGCATATAGG	1.009 ± 0.0059
TGAATCGTTT	0.937 ± 0.043
CGGGAAAGTC	0.996 ± 0.027
ACAATATGGG	1.01 ± 0.079
TTCTGTTAGA	1 ± 0.012
CGGATTAGAG	0.9641 ± 0.0032
GCCGGAGGGG	1.26 ± 0.39
ACGAGTTCCC	1.01 ± 0.043
TGATGGATAA	1.01 ± 0.027
TTAATTGGCC	0.992 ± 0.055
GGCGAGTGAG	1.03 ± 0.029
CGGCGGGGGA	1.04 ± 0.043
CTAGTGACTA	0.987 ± 0.032
GGGACAGGCG	0.991 ± 0.095
TGGGAGATGT	0.993 ± 0.015
TGGGGGCCCT	0.996 ± 0.026
ATATTGGTTA	0.9923 ± 0.0052
TTTTACCGAT	1.01 ± 0.034
TTTGTTTGTA	1.01 ± 0.017
GGGGGAGGCG	1.03 ± 0.082

Sequence	switch fluorescence ratio
TGTTGCTTCG	1.03 ± 0.042
ACGGCCGGGG	1.04 ± 0.027
TACCAGTGAT	1 ± 0.018
CGTGGGTAAG	1.02 ± 0.039
TGTGTTTTTG	1.01 ± 0.015
GCAGGGGGGC	1.03 ± 0.035
GAGGGCCGTG	0.933 ± 0.043
GTTTATCGCT	1.023 ± 0.0077
CCAATATTCG	1.09 ± 0.056
AACAATATTG	1.02 ± 0.028
TCGTTATTTT	1.04 ± 0.052
ATGTCAGAGA	1.02 ± 0.037
TTGGGGTCCC	1 ± 0.037
ACGATGCGGG	1.09 ± 0.025
CGAAAGATGA	0.982 ± 0.019
TAGTCATATC	1.01 ± 0.032
AGGCTTGTTT	0.996 ± 0.015
GTTAGAAATG	1.01 ± 0.011
GTTTTGGTTA	1.01 ± 0.014
GTTTTGCATA	1.01 ± 0.028
TCTGAGTTTT	1.05 ± 0.06
ACGACCATCG	1.01 ± 0.02
GGGGCGTTAT	0.969 ± 0.048

Sequence	switch fluorescence ratio
CTGTTTGAGA	1.02 ± 0.018
CGTTTTTTTG	1.014 ± 0.0018
GTACTTTAAT	1.034 ± 0.0036
GACGTATCGT	0.989 ± 0.032
GGGAGGGTGC	1.02 ± 0.07
TTAATGCAAC	1.01 ± 0.021
TGAGTTTCGG	0.9869 ± 0.0098
ATGTCGACAG	1 ± 0.043
TTTGCGTGTT	1.019 ± 0.0086
GCGACAGATG	1.01 ± 0.027
AAAAAATTGC	1.04 ± 0.058
AAGGCCAGGT	1.17 ± 0.083
TCTGGGGGGG	0.99 ± 0.052
TAGAGAAGTT	1 ± 0.015
CCGGCGGGCT	1.05 ± 0.013
TGTAGTTGGA	0.973 ± 0.032
TACGCGGGGG	1.019 ± 0.0098
TTATGAGGGG	1.009 ± 0.0077
CGTTGGAAGA	1.02 ± 0.015
ATTAGAGCGT	1.013 ± 0.0045
ACGACGAAGG	1.06 ± 0.083
ATATGTGGTG	1.02 ± 0.028
TGTCGCATTT	1.04 ± 0.012

Sequence	switch fluorescence ratio
TTGGGGGGAA	1.01 ± 0.025
TGAAGTTCGG	1.06 ± 0.025
CGGGGCGAGG	1 ± 0.017
TTTTGCCATT	0.999 ± 0.035
GTTCAGGGGA	1.27 ± 0.41
AAATTAGGTC	0.95 ± 0.11
TTTCAGTGCA	1.02 ± 0.029
TTCAAATTTA	0.995 ± 0.025
AACAATTCTG	1.01 ± 0.012
ATTTCTGGGT	0.9885 ± 0.0082
TAAGGTGGGG	0.987 ± 0.021
GGAGTTAATT	1.02 ± 0.013
GCTGATGGGC	1.05 ± 0.044
TTTATGTTCG	0.99 ± 0.02
GTGCAAGGTA	1 ± 0.014
GATACTGATC	1.13 ± 0.042
AGACTCTCG	1.02 ± 0.098
CGGGCCCCGG	1.74 ± 0.35
CATCAAGGCA	1.01 ± 0.019
